Assay [1] has as its target recombinant hACE2-AviTag protein from 293T cells (Acro Biosystems) (human) (UniProt Q9BYF1). As to the kind of experiment: SPR, hACE2-AviTag captured on chip, spike construct as analyte.
In assay [2] the target is hACE2 on human bronchial epithelial Calu-3 cells (human) (UniProt Q9BYF1).

For “S-Ecto-eGFP (other; other documents disagree on this pair)”, the Kd in assay [1] was 55.1 nM. Besides, in assay [2], the fold median GFP fluorescence intensity (MFI) over GFP-His tag control stood at 2.6 fold.

The values above are taken from patent publication US20220339279A1, “RECOMBINANT PROTEINS, COMPOSITIONS, VECTORS, KITS, AND METHODS FOR […], AND TESTING FOR EXPOSURE TO, SEVERE ACUTE RESPIRATORY SYNDROME CORONAVIRUS 2” (Board of Regents of the University of Nebraska, priority 2021, published 2022).
